Experimental data from US20110262358A1 (SAPPORO MEDICAL UNIVERSITY, published 2011).
Non-standard residues stand in square brackets, D forms with d. No end group written: not given here.

B1: or7c1_131(10) (peptide)
peptide: HYTV[code i]MNPQL
notes: Synthetic OR7C1-derived peptide, printed HYTViMNPQL with a lower-case i

What follows are binders tested against T1, HLA-A24 molecule (HLA-A2402) expressed on T2-A24 cells (human) (assay: HLA-A24 stabilisation on T2A24 cells, flow cytometry with anti-HLA-A24 antibody).
T1 construct: whole, on cells; MHC class I molecule on T2-A24 cells
B1: binds.
MYTMVTPML [or7c1_277(9)]: binds.
TYAGCLSQIF (also called peptide 93(10)) [or7c1_93(10)]: binds.
MYLVTFTGNL [or7c1_34(10)]: binds.
FYGTGFGVYL [or7c1_251(10)]: binds.
